Assay results: publication PMC1802081

What was measured:
Assay in all cases: SPR; BIACORE 2000; biotinylated ligand on a streptavidin-modified CM5 chip (about 200 RU); receptor ectodomain as analyte at 1, 2, 3, 5, 10, 20 and 50 uM; HBS500 (10 mM HEPES pH 7.4, 500 mM NaCl, 3.4 mM EDTA, 0.005% P20); apparent KD from the dose dependence of equilibrium binding
[1] = molecular target: BMP-2 A86P
[2] = molecular target: BMP-2 variant L100K/N102D
[3] = molecular target: BMP-2 N102D
[4] = molecular target: BMP-2 S85R/A86P
[5] = molecular target: BMP-2 L100K
[6] = molecular target: BMP-2 S85R

For “ActR-II receptor ectodomain (from UniProt P27037 20-135)”, the rel. KD (against wildtype BMP-2 from E. coli with the same receptor) [1] was 1.5 fold, the rel. KD (against wildtype BMP-2 from E. coli with the same receptor) [2] was 0.29 fold and the rel. KD (against wildtype BMP-2 from E. coli with the same receptor) [3] was 3.6 fold. It also gave a rel. KD (against wildtype BMP-2 from E. coli with the same receptor) [4] of 1.3 fold, a rel. KD (against wildtype BMP-2 from E. coli with the same receptor) [5] of 0.84 fold and a rel. KD (against wildtype BMP-2 from E. coli with the same receptor) [6] of 0.85 fold.
